Experimental data: US5723594

Target: PDGF-AB (Homo sapiens) (UniProt P04085+P01127)
Assay: filter

PDGF-AB (Homo sapiens), sequence (P01127 82-190, chain 2 of 2, other chains not shown): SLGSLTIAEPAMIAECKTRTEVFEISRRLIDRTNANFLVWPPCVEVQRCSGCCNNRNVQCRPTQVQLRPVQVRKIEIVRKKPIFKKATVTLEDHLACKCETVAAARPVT

ATCCGCCTGATTAGCGATACTNNNNNNNNNNNNNNNNNNNNNNNNNNNNNNNNNNNNNNNNACTTGAGCAAAATCACCTGCAGGGG [random ssDNA library]
binding signal (fold weaker than round 12 pool) (initial random library): 700

ATCCGCCTGATTAGCGATACTNNNNNNNNNNNNNNNNNNNNNNNNNNNNNNNNNNNNNNNNACTTGAGCAAAATCACCTGCAGGGG [ssDNA SELEX round 12 pool]
Kd (round 12 enriched pool, data not shown): 0.05 nM
